In patent US11649275B2, “Dual agonist fusion proteins” (Duke University, priority 2018, dated 2023):

Legend:
[1] = biological target: T1, murine β-Klotho and FGF receptor 1 (Mus musculus, UniProt P16092+Q99N32); experiment: ERK phosphorylation assay (FGF21 receptor agonism, HEK293 cells); assay type: cell-based; conditions: compared to native FGF21
T1 construct: expressed in transfected cells; host or cells: HEK293
Description: ERK phosphorylation assay: For quantitative evaluation of FGF21 in vitro activity, a HEK293 cell line was previously generated that stably expresses murine β-Klotho and FGF receptor 1 and thereby enables FGF21-mediated ERK1/2 phosphorylation. Cells were seeded at 5×10^4 cells/cm^2 and adhered overnight. After serum starvation for 6 h, cells were treated with serial dilutions of FGF21-containing fusion proteins or native mouse FGF21 (ProSpec-Tany, East Brunswick, N.J.) for 5 min. Cells were lysed and assessed for phospho-ERK1/2 and total ERK1/2 content using the AlphaLISA Surefire Ultra Assay Kits (PerkinElmer) and the EnSpire Alpha Plate Reader (PerkinElmer). Phospho-ERK1/2 was normalized to total ERK1/2 and fit to a three-parameter dose-response curve to determine EC50s using GraphPad Prism 8 software (La Jolla, Calif.).

db/db mice [2] = experiment: Short-term co-treatment pilot study, 48 h after single s.c. injection; assay type: in vivo; conditions: 48 h post-injection, 1000 nmol/kg s.c.
Description: (§1) Animals: In vivo studies were conducted in accordance with the AAALAC-accredited Duke Institutional Animal Care and Use Committee. 5-week-old B6.BKS(D)-Lepr^db/J (“db/db”) male mice were purchased from Jackson Laboratory (Bar Harbor, Me.) and maintained on a 12 h/12 h light/dark cycle with ad libitum access to food (LabDiet 5053) and water. Animals were group-housed and allowed 1-week acclimation before stratification into control and treatment groups based on baseline ambient blood glucose levels and body weights.
(§2) ELP fusion treatments: ELP fusion proteins were administered at 150-200 μM concentration via injection into the subcutaneous (s.c.) space on the hind flank. Animals received either a single s.c. injection for short-term studies or weekly s.c. injections for chronic studies. The “1:1 mixture” treatment group received a single injection containing an equimolar mixture of GLP1-ELP and ELP-FGF21, with the indicated dose referring to the dose of each respective fusion in the mixture. Vehicle control refers to PBS.
Ambient blood glucose measurements: Blood glucose levels were measured from a tail vein puncture with an AlphaTRAK 2 Blood Glucose Meter (Zoetis, Parsippany-Troy Hills, N.J.) every 24 h, 1-2 h following onset of the light cycle. […] Areas under the curve (AUCs) were calculated with GraphPad Prism 8 software using the trapezoidal rule and setting a Y=0 baseline. […]

[3] = Pharmacokinetic study of radiolabeled ELP fusion depots after s.c. injection; assay type: in vivo, mice; conditions: component of 1:1 mixed depot, 1000 nmol/kg each
Description: Pharmacokinetic studies: Tyrosine residues on GLP1-ELP, ELP-FGF21, or GLP1-ELP-FGF21 fusion proteins were reacted with Na^125I radionuclide (Perkin Elmer) using Pierce Pre-Coated Iodination Tubes (Thermo Fisher Scientific) and the indirect method for iodination. Radiolabeled protein was purified from unreacted radionuclide with Zeba Spin Desalting Columns (Thermo Fisher Scientific). Activities of radiolabeled constructs were measured with an Atomlab 400 Dose Calibrator (Biodex, Shirley, N.Y.) and correlated to protein concentration. Mice received a single s.c. injection of radiolabeled fusion, and 10 μL blood samples were collected at frequent time points from the tail vein and stored at room temperature until radioactivity quantification. Sample counts were measured at the end of the study on a Wallac Wizard 1480 Automatic Gamma Counter (Perkin Elmer). An activity vs. count standard curve was used to convert sample counts to activities, and subsequently to moles of drug.
Pharmacokinetic analysis: The maximum serum concentration (Cmax) was recorded as observed, as well as time to reach Cmax (tmax). […] Absorption half-life (t1/2, abs) was estimated from the slope of the linear regression curve. When a drug administered at an extravascular site yields a terminal half-life greater than that resulting from an i.v. bolus, the terminal half-life reflects the absorption half-life.

db/db mice [4] = experiment: Chronic dosing study, weekly s.c. for four weeks (GTT, % HbA1c, body weight, food intake); assay type: in vivo
Description: as §1, §2
Food Intake: For food intake studies, animals were group-housed 4 per cage, and food pellets were weighed every 1-2 days. Total cage food intake was calculated for each time increment, averaged per animal, and summed over the course of the study to yield a cumulative food intake per mouse. N=8 treatment groups were divided into 2 cages, allowing for an n=2 food intake standard error calculation.

T1 sequence (Q99N32 whole entry): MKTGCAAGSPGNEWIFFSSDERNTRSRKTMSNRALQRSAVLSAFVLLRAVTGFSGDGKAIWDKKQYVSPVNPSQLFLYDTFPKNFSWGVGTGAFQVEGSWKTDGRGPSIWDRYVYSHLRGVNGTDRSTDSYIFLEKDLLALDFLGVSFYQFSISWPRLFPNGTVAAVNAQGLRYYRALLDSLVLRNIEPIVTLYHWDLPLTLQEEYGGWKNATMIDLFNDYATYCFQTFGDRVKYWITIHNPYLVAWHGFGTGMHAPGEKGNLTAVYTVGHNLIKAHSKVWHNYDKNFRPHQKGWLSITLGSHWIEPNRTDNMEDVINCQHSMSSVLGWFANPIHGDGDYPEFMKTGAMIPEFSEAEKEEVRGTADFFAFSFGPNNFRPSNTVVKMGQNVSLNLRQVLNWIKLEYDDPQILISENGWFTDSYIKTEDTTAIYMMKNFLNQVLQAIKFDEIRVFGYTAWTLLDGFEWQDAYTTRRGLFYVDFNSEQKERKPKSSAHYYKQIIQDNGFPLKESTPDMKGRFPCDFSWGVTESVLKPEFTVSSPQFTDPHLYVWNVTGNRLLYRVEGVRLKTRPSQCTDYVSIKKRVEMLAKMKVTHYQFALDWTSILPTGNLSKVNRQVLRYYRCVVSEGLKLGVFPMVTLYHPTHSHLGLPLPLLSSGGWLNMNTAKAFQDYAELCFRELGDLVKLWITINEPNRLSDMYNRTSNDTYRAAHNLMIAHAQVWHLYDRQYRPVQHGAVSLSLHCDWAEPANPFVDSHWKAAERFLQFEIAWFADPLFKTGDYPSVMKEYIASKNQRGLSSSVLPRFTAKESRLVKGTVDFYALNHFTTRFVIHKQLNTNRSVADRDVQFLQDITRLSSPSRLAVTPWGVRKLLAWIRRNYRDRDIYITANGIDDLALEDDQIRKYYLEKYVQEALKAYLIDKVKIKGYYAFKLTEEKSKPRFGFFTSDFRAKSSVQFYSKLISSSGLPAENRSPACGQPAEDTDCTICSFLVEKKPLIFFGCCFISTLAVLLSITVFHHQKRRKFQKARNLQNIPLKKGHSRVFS
T1 sequence (P16092 22-822): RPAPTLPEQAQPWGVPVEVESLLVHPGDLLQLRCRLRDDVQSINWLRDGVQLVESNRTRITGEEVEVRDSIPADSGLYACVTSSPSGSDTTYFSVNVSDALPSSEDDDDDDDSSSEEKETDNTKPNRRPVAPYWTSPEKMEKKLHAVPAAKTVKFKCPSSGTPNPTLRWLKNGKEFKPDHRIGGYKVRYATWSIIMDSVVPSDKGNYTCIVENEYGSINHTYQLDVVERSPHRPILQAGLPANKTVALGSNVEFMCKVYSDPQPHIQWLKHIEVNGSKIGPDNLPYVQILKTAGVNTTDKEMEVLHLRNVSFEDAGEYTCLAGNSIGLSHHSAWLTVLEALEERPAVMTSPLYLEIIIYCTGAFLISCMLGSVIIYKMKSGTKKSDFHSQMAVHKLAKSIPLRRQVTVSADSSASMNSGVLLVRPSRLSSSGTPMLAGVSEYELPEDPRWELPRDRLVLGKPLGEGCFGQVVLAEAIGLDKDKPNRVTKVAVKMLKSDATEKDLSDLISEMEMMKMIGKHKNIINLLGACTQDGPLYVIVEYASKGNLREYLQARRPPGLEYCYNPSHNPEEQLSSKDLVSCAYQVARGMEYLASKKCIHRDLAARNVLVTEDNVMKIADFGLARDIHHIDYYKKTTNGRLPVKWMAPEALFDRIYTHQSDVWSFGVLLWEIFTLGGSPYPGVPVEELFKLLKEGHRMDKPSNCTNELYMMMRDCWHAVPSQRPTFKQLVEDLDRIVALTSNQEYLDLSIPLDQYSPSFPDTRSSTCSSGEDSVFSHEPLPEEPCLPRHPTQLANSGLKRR

increase in FGF21 receptor EC50 on fusion of FGF21 to an ELP [1]: approximately twenty-fold
B1: ELP-FGF21: Single agonist control: ELP (120 repeats, 4:1 Val:Ala) fused to mutated murine FGF21; SEQ ID NO:14 (protein)
chain: GVGVPGVGVPGAGVPGVGVPGVGVPGVGVPGVGVPGAGVPGVGVPGVGVPGVGVPGVGVPGAGVPGVGVPGVGVPGVGVPGVGVPGAGVPGVGVPGVGVPGVGVPGVGVPGAGVPGVGVPGVGVPGVGVPGVGVPGAGVPGVGVPGVGVPGVGVPGVGVPGAGVPGVGVPGVGVPGVGVPGVGVPGAGVPGVGVPGVGVPGVGVPGVGVPGAGVPGVGVPGVGVPGVGVPGVGVPGAGVPGVGVPGVGVPGVGVPGVGVPGAGVPGVGVPGVGVPGVGVPGVGVPGAGVPGVGVPGVGVPGVGVPGVGVPGAGVPGVGVPGVGVPGVGVPGVGVPGAGVPGVGVPGVGVPGVGVPGVGVPGAGVPGVGVPGVGVPGVGVPGVGVPGAGVPGVGVPGVGVPGVGVPGVGVPGAGVPGVGVPGVGVPGVGVPGVGVPGAGVPGVGVPGVGVPGVGVPGVGVPGAGVPGVGVPGVGVPGVGVPGVGVPGAGVPGVGVPGVGVPGVGVPGVGVPGAGVPGVGVPGVGVPGVGVPGVGVPGAGVPGVGVPGVGVPGVGVPGVGVPGAGVPGVGVPGVGVPGVGVPGVGVPGAGVPGVGVPGVGVPGAYPIPDSSPLLQFGGQVRQRYLYTDDDQDTEAHLEIREDGTVVGAAHRSPESLLELKALKPGVIQILGVKASRFLCQQPDGALYGSPHFDPEACSFRERLLEDGYNVYQSEAHGLPLRLPQKDSPNQDATSWGPVRFLPMPGLLHEPQDQAGFLPPEPPDVGSSDPLSMVEGSQGRSPSYASG
body weight, % change from pre-injection weight (db/db mice [2]): −0.9±0.3%
day by which plasma levels dropped below 100 nM [3]: ≤ 4 days
fasting blood glucose levels (db/db mice [4]; 5 h fast, 3 days after the first dosing cycle, 1000 nmol/kg s.c.): 237 ± 21 mg/dL
% HbA1c elevation relative to control (db/db mice [4]; four-week study): significantly reduced % HbA1c elevation relative to control
effect on body weight / weight gain compared to vehicle (db/db mice [4]; four-week treatment period): did not induce a significant effect on body weight
GTT AUC (db/db mice [4]; i.p. glucose tolerance test 3 days after the first dosing cycle): significantly decreased GTT AUC compared to vehicle
fasting plasma insulin (db/db mice [4]; prior to glucose challenge, 3 days after the first dosing cycle): equivalent levels of fasting plasma insulin
